The domain aggregation screens of Martell et al. (2025)

Assay: soluble fraction after stress (log2 fold change); higher = more stays soluble; pooled small domains, quantitative proteomics
Details: stress: pH 4
In short: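 With high-throughput quantitative proteomics, pooled custom libraries of small protein domains were measured after pH 4 stress. Each domain's soluble amount after the stress gives a fold change taken as aggregation propensity. Higher log2 values mean more of the domain stayed soluble.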

Row | Sequence | soluble fraction (log2)
1 | HMTGMDALIGRRVFVSEEILPGDAGGRVAVDGDSWRAISVGTAKPIPAGTEVRIHGYKSLILEVEPI | 0.0974
2 | HMTGQHFDLEDTDGNLVYEIDSTVPLKTFYIYDAMHTEIFRMTKELLHALPTYRFYLYGEPYGVLKKQ | -0.52
3 | HMTGRVKWYDATKGFGFVTSDEGGDVFLPKGALPAGVADLKTGQRIEFGVVDSRKGAQALGVK | -0.22
4 | HMTGSAETRGITLTDEQVTVWAKDGSWANYVYRATDGNWYDGSGRLYYENGGGEWTQAATGEQGS | -1.68
5 | HMTGSALDATIEKLLDLGSKAGSVTEDEIQIVLKNVDVTDAQLSSIYQFLRDRGVEIVSATEDDD | -1.38
6 | HMTGVPYLVRVKITDLHIRSGPGTNYASKGFIAPGAYTIVEESTGQGAALWGKLKSGKGWIALGYTEK | 0.0451
7 | HMTHAISKTYAVTGEQLKNGFTLTHTFANGSTRRVDVYPGSRSGKVIAVRNTTDDTTEWIRIVEG | -0.0152
8 | HMTHSEYVGRHGIAATSLRPAGAATIDGSRVDVVTSGEYIEKGTPIEVMTVNGSTVRVKAVPQIP | 0.08
9 | HMTIDANAIEKMVLDLIGEHPNEWGRYRDGDKKVQGFFVGQIMKATSGQADGKIVNQILSQHAEA | 0.126
10 | HMTIELAEGQHFLQISKSGAPMGNVVRDLIIQTLKITNGNQIKAAKILGISRAKLRYRIEQLGINITGKNI | -0.0446
11 | HMTIERVKIKETPTGWLRVRETPDNNGSEIGRANVGEIYELLGSKGEWYHIVYKGKQGFISTKYAEKVL | -0.124
12 | HMTIGEALLNLRKQLGLNQTEMAANVVSTSFYSKVERNIHDIGTKDLLQILNKHQINATYFFENLN | -0.446
13 | HMTIHVMEIKSLLPIKILDESQHLVQSFSSKNPTSYNYRLIFSDKSKLENIKKTINENKDVESIEIRYA | -0.436
14 | HMTILTSSQRKALISKMIRQGGVESQSHLVKLLAREGVKVTQATASRDLEDLGATRVRDANGEFQYVIP | 0.0156
15 | HMTINQIDPASGRKVGYWIITGEMKPKEGFSPDNKIEEGIYVNSRKSGKWIKYWPNGNVRSEIIYKNGR | -0.0109
16 | HMTITPEVIVNHFKNLDLFFTKNGNYYEFKKKGTENILFKYGIYKQKPNIFVKIQRYPISSLSDLERIPI | -0.159
17 | HMTIYLSENIKRLRLEKELTQETLSEFLGVTSQSVSNWERGESYPDITMLPEIADFFKVSVDELLGVNRAE | -1.66
18 | HMTIYPFNPNYLKDYQAYRVGLSLKEIDALLDFRSSGQWINSAEDFQRITGVSDSVLEQLIPYFKFS | -1.73
19 | HMTKASYKITTPSGVNVREGAGKRYAVRKAYPKGKTVTVTQTKEVNGNLWGKTSDGWFAIKYQGAVYASA | 0.2
20 | HMTKDEFLTTLRTLIQDMPPEDRRDVMNYYTEYFEDAGPEREQEVLRQLGSPEQVAREVLGG | -0.459
21 | HMTKDVIEIVDGNKFVFHKTIATDSVSSVINKYHISEADFRTWNELTGDMKVGEEYIVQLSLH | -0.576
22 | HMTKKFQIQTLDKLNVRKVADWNASAVTTVKKGQILDVVAEVSPKNGSTKMYKLESGLYITASEKYVKKQG | ≥ 0.43
23 | HMTKLPLLVELSRIIPTDTWVKKIKFSLGSVEFVGISKSASRLLPIVENSSYFHDTKFIGTIVT | -0.274
24 | HMTKNIIVTTSVKTSDELVEVAKNHALNLELDFNYRNKKTIKELLSSFDGLVVIYKNKISYFEDNSELF | 0.22
25 | HMTKQDYLTALQQELNKNAVADAEDIVSEYEQHFQFKLADGFTEEEIAAKLGAPAQIALQFAG | -1.64

Row | Sequence | soluble fraction (log2)
26 | HMTKQRSIILDLLKANQDRHLTAEEMLELLNQNHTPVSKATLYRYLDMLVSQNAVRKFIIDDQPSAGYQYL | -0.0717
27 | HMTKSTSMDLGGFMIVEGSETVRLGGQILQKDVDYTIDYFSGKINFISEEALNPGAEISVSYEENQ | -1.44
28 | HMTKTEFLEALRRALNGNMAAASVEDNLKFYENYFYSEEAKGRSEAAVLSELGDPRILARTLIDAAER | -0.816
29 | HMTKTEFLNLLEQRLFVLNDNERADLLSEYKQHIEMKIQSGLSEEEAIADFGDPEELIKELLEAY | -1.13
30 | HMTKTFDSPEDADNDVLAKTLFQIFGVQSVYLKENFVTITKSNSVGWHTLMEKTGHTLEEHLKF | 0.0576
31 | HMTKTKFLSKDMILSAMSRTKSNRAAARYLSVSFVHYKKYAREYKDETSGVSLWEKHKNQSGTGIPK | 0.0318
32 | HMTKTSQEDEDIMRHLDELHTRWPFLGQRKLIEELKDQGIQIGRKRLRRLMKVMGIEAIAPK | 0.173
33 | HMTKVMVPNVVGMSRGEAEEALRGVKLQVDLKREVSDDPEVKPEEVLRQTPDAQTSVPQGSVVTLYVADKP | -0.407
34 | HMTKYEKKIFEIVNASRDHLTAEQVLAALREEYPAVSQATVYNNLKKLTSDGLLRKLTLADSPDRYD | 0.211
35 | HMTLAAATESREYLADLARRLDAADHGDKTRIKAEAAGLLGWSMATLHARLARDVGWTSGRK | -0.166
36 | HMTLDEFTDLMNLFKTGHIEQKPVILYGYNYWTSLKSWFEFNNMKFPEMYIDGIINTVDEFKILYNKIF | -0.77
37 | HMTLGPKQMGEAIIKNLKEKTGKSLEEWSQRILIHELTDKKEIIDFLKNDNGLGHFQALKIFEHLNGK | -0.652
38 | HMTLGQHIQALRKEAGYSQEALGEALGVTRQSISKWESDQAIPEVDKLVTLSRLFQVPVGVLLQVEQP | -0.166
39 | HMTLGSVRTVRQVLDDGRLLVADSGGNVTLVRRAGTLAKENVNTGDRVSVDSSVRFALTLIPV | -0.00374
40 | HMTLPEKSKRLFSQDDFWDQIFYRIGEGQSLREVSKYYKIPYTTIHDRIHSDEGIKLKYLEALTS | -0.592
41 | HMTLPQEPTVLPRPLRVGDTVHIRTLDKDAEVLALPDARGMVAVRAGIINTKVKLTDLTLVEEK | ≥ 0.43
42 | HMTLRDRDQALEELWGQLADVPMDSETERLLEPFMGWGVGVSRDEIWHWFDRRHSKGIGHLLYS | -1.67
43 | HMTLSENEKIIVDTIMKYQPLHIDVLNQQVKVDFYTLLGLLTKLEMEGIVLKNPGNIYKINTL | -0.865
44 | HMTLTPEQQAARRSEIVDIALRLIAENGFQKTSMREIADLAKMGKSSLYDFFKTKDEIAVYAMEKK | -0.856
45 | HMTMEFGEFLAKLRKERGYYQKEVAAYLNVTVATISNYEKNVHAPDLDTLVKLADFYDVSTDYLLQRT | -1.46
46 | HMTMGAAEAQALKDEALELYRTGGTQEDVVRAIEMYEQAAEAGNAQAASDLAYLKANGVYETAMNN | -0.75
47 | HMTMQQGTISRLNHSRGFGFLTTPDGEDLFFHRTNVHETPFARLQVGDRVTYDVQVTPRGTRADKVQLNM | -0.222
48 | HMTMRFVVADGQNFGSIAQSKALEAVKKGNTEFNYKDVDYTVDIQSDDFYVVYQGRDIMGYASR | -1.89
49 | HMTMTIEITVNGKTKTLVAELSLADLLRDLGMTKGRIAVELNGHIVPRSQFSSKTISNLDSIEIVQ | 0.138
50 | HMTNADRYIGQEATVTEKISNELSTGAVRIGGLVWTARTVDNSEAEEGERVTVEAIEGAKLLVKRR | -0.0323
